We go through ten molecules from patent US20240336672A1 (INSTITUT PASTEUR, published 2024).

Assay [1] deals with T1, SARS-CoV-2 S1 domain, Wuhan (SARS-CoV-2, UniProt P0DTC2 16-681). Description: ELISA. Further details: unit not given beside the values. A general note: ELISA stands for enzyme-linked immunosorbent assay.
Assay [2] deals with T1, SARS-CoV-2 S1 domain, Wuhan. Nature of the assay: ELISA.
Assay [3] has as its target T2, SARS-CoV-2 spike, Wuhan strain, on virus or pseudotyped particles (SARS-CoV-2, UniProt P0DTC2 14-1273). Description: cell-based or functional assay.
Assay [4] concerns the target T2, SARS-CoV-2 spike, Wuhan strain, on …. Nature of the assay: cell-based or functional assay. The source holds these as a separate data set.
The target of assay [5] is T1, SARS-CoV-2 S1 domain, Wuhan. Nature of the assay: SPR (Biacore), antibody coupled to CM5 chip, viral protein as analyte.
The target is the same in assay [6]. Description: SPR (Biacore), IgG immobilized, viral protein as analyte. Background: Surface plasmon resonance follows binding to a sensor surface in real time, without labels.
The target is the same in assay [7]. Nature of the assay: ELISA, coated antigen. Note: test concentration or dose not given here.
The target is the same in assay [8]. Description: SPR (Biacore), antibody immobilised.
Assay [9] concerns the target SARS-CoV-2 RBD domain, Wuhan (SARS-CoV-2). Nature of the assay: RBD-ACE2 competition ELISA. Further details: unit not given beside the values.
Assay [10] shares this target. Description: ELISA. On the set-up: unit not given beside the values.
Assay [11] has the same target. Description: RBD-ACE2 competition ELISA.
Throughout, for OD405nm: test concentration or dose not given here.
Throughout, for PseudoNEUT (%): test concentration or dose not given here.
Throughout, for S-FuseNEUT (%): test concentration or dose not given here.

B1: ADG-2 (antibody, V domains shown)
VH: EVQLVESGGGLVKPGGSLRLSCAASGFTFSSYYMNWVRQAPGKGLEWVSSISEDGYSTYYPDSLKGRFTISRDSAKNSLYLQMNSLRADDTAVYYCARDFSGHTAWAGTGFEYWGQGTLVTVSS
VL: QSVLTQPPSVSGAPGQRITISCTGSSSNIGAGYDVHWYQQLPGTAPKLLIYGSSSRNSGVPDRFSGSKSGTSASLAITGLQAEDEADYYCQSYDSSLSVLYTFGTGTKVTVL
Molecule B1 returned an AUC in assay [1] of 3.

B2: Adintrevimab (antibody, V domains shown)
VH: EVQLVESGGGLVKPGGSLRLSCAASGFTFSSYYMNWVRQAPGKGLEWVSSISEDGYSTYYPDSLKGRFTISRDSAKNSLYLQMNSLRADDTAVYYCARDFSGHTAWAGTGFEYWGQGTLVTVSS
VL: QSVLTQPPSVSGAPGQRITISCTGSSSNIGAGYDVHWYQQLPGTAPKLLIYGSSSRNSGVPDRFSGSKSGTSASLAITGLQAEDEADYYCQSYDSSLSVLYTFGTGTKVTVL
Turning to B2, the OD405nm in [2] is 3.3.

B3: Cv2.1169 (recombinant human IgG1) (antibody)
heavy: QVQLVQSGPEVKKPGTSVKVSCKASGFTFTTSAVQWVRQARGQRLEWIGWIVVGSGNTNYAQKFQERVTITRDMSTTTAYMELSSLRSEDTAVYYCAAPYCSGGTCLDGFDIWGQGTMVTVSSASTKGPSVFPLAPSSKSTSGGTAALGCLVKDYFPEPVTVSWNSGALTSGVHTFPAVLQSSGLYSLSSVVTVPSSSLGTQTYICNVNHKPSNTKVDKKVEPKSCDKTHTCPPCPAPELLGGPSVFLFPPKPKDTLMISRTPEVTCVVVDVSHEDPEVKFNWYVDGVEVHNAKTKPREEQYNSTYRVVSVLTVLHQDWLNGKEYKCKVSNKALPAPIEKTISKAKQPREPQVYTLPPSRDELTKNQVSLTCLVKGFYPSDIAVEWESNGQPENNYKTTPPVLDSDGSFFLYSKLTVDKSRWQQGNVFSCSVMHEALHNHYTQKSLSLSPGK
light: not shown
notes: also called Cv2.1169 IgG
The term Kd denotes the constant that tells how readily two partners part at equilibrium. A word on the koff: it is the rate constant with which the complex falls apart. For orientation: kon means the rate constant with which the complex forms. For B3, in [3], the “Pseudoneutralization IC50” value stood at 3 ng/mL, the “Pseudoneutralization IC90” value worked out at 12.4 ng/mL, the “S-Fuse neutralization IC50” value is 1.5 ng/mL and the “S-Fuse neutralization IC90” value is 3.5 ng/mL. Moreover, the OD405nm in assay [2] amounted to 3.3. Further, in assay [4], the “PseudoNEUT (%)” value stood at 100% and the “S-FuseNEUT (%)” value came to 95%. The dissociation constant (Kd) in assay [5] was less than 0.001 nM. In assay [6], this molecule came in with a Kd of 1.44 nM, a koff of 0.000354 s⁻¹ and a kon of 246000 M⁻¹ s⁻¹. The “ELISA OD” value in [7] worked out at 3.5 OD.

B4: Cv2.1353 (recombinant human IgG1) (antibody, V domains shown)
VH: EVQLVESGGGLVQPGGSLRLSCAASGVTVSSNYMNWVRQAPGKGLEWVSVIYSGGSTFYADSVKGRFIISRDNSKNTLYLQMNSLKTEDTAVYYCARDLGPMGFDIWGQGTMVTVSS
VL: DIQMTQSPSFLSASVGDRVTITCRASQGISSYLAWYQQKPGKAPKLLIYAASTLQSGVPSRFSGSGSGTEFTLTISSLQPEDFATYYCQQLNSDPPVTFGPGTKVDIKR
Consider B4, for which, in assay [8], binding was put at a Kd of 6 nM. Also, in assay [4], the “PseudoNEUT (%)” value came out at 100% and the “S-FuseNEUT (%)” value turned out to be 100%. The “ELISA OD” value in assay [7] was 3.5 OD.

B5: COV2-2196 (parental IgG1 version) (antibody, V domains shown)
VH: QMQLVQSGPEVKKPGTSVKVSCKASGFTFMSSAVQWVRQARGQRLEWIGWIVIGSGNTNYAQKFQERVTITRDMSTSTAYMELSSLRSEDTAVYYCAAPYCSSISCNDGFDIWGQGTMVTVSS
VL: not shown
As to B5, the AUC in [1] was 3.

B6: TIX (antibody, V domains shown)
VH: QMQLVQSGPEVKKPGTSVKVSCKASGFTFMSSAVQWVRQARGQRLEWIGWIVIGSGNTNYAQKFQERVTITRDMSTSTAYMELSSLRSEDTAVYYCAAPYCSSISCNDGFDIWGQGTMVTVSS
VL: not shown
notes: also called Tixagevimab
For the molecule B6, in assay [2], the OD405nm came to 3.3.

B7: Cv2.5179 (recombinant human IgG1) (antibody, V domains shown)
VH: QVQLVQSGPEVKKPGTSVKVSCKASGFTFTSSAVQWVRQARGQRLEWIGWIVVGSGNTNYAQKFQERVTITRDMSTSTAYMELSSLRSEDTAVYYCAAPHCSSTSCYDAFDIWGQGTMVTVSS
VL: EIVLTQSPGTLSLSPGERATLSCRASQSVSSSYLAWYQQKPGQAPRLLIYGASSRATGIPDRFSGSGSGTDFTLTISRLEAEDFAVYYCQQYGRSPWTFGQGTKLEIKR
notes: also called Cv2.5179 IgG
B7: in [9], the “AUC (Blocking)” value worked out at 103. In addition, in assay [10], the “AUC (Binding)” value worked out at 11. The “IC50 (read off the curve)” value in assay [11] was roughly 600 ng/mL.

B8: Cv2.3235 (recombinant human IgG1) (antibody, V domains shown)
VH: EVQLVESGGGLIQPGGSLRLSCAASGFTVSRNYMSWVRQAPGKGLEWVSVIYSGGSTFYADSVKGRFTISRDNSKNTLYLQMNSLRAEDTAVYYCARDGDYYGMDVWGQGTTVTVSS
VL: DIQMTQSPSFLSASVGDRVTITCRASQGISSFLAWYQQKPGKAPKLLIYGASTLQSGVTSRFSGSGSGTEFTLTISSLQPEDFATYYCQRLDSYPPITFGQGTRLEIKR
Turning to B8, the dissociation constant (Kd) in assay [8] stood at 18.9 nM. Besides, in [4], the “PseudoNEUT (%)” value is 100% and the “S-FuseNEUT (%)” value is 100%. Besides, the “ELISA OD” value in assay [7] came out at 3.9 OD.

B9: Cv2.3194 (recombinant human IgG1) (antibody, V domains shown)
VH: EVQLVESGGGLIQPGGSLRLSCAASGITVTSNYMSWVRQAPGKGLEWVSVIYPGGSTFYADSVKGRFTISRDNSKNTLYLQMNSLRAEDTAVYYCARDLVVYGMDVWGQGTTVTVSS
VL: EIVLTQSPGTLSLSPGERATLSCRASQSVSSSYLAWYQQKPGQAPRLLIYGASSRATGIPGRFSGSGSGTDFTLTISRLEPEDFAIYYCQQGVTFGGGTKVEIKR
Consider B9, for which, in assay [3], the “Pseudoneutralization IC50” value amounted to 18.9 ng/mL, the “Pseudoneutralization IC90” value was 241 ng/mL, the “S-Fuse neutralization IC50” value turned out to be 3 ng/mL and the “S-Fuse neutralization IC90” value amounted to 9.8 ng/mL. In [2], this molecule showed an OD405nm of 3.4. In [4], the “PseudoNEUT (%)” value came out at 100% and the “S-FuseNEUT (%)” value came to 100%. This molecule displayed a dissociation constant (Kd) in assay [5] of less than 0.001 nM. For the same molecule, in assay [6], binding was characterised by a dissociation constant (Kd) of 1.2 nM. For the same molecule, the “ELISA OD” value in [7] was 3.7 OD.

B10: Cv2.5213 (recombinant human IgG1) (antibody, V domains shown)
VH: EVQLVESGGGLIQPGGSLRLSCAASGFTVSSNYMSWVRQAPGKGLEWVSLIYSGGSTYYADSVKGRFTISRDNSKNTLYLQMNSLRAEDTAVYYCARDLNYYGMDVWGQGATVTVSS
VL: DIQMTQSPSSLSASVGDRVTITCRASQGISSYLAWYQQKPGKAPKLLIYAASTLQSGVPSRFSGSGSGTDFTLTISSLQPEDFATYYCQQLDSYSPFTFGPGTKVDIKR
B10 had a Kd in [8] of 520 nM. In assay [4], the “PseudoNEUT (%)” value was found to be 100% and the “S-FuseNEUT (%)” value came to 96%. Further, in [7], the “ELISA OD” value was 3.5 OD.
